We go through 15 molecules from patent US20120269817A1 (Bayer, published 2012).

Substitutions are numbered along the chain they refer to.

For one experiment, the target named is T1, BSA (bovine, UniProt P02769 25-607).
T1 construct: also called bovine serum albumin
In words: ELISA. The method, then: (§1) To select antibody clones that bind to human TFPI, Fab genes of the phage clones from the second and third round of panning were subcloned into a bacterial expression vector and expressed in E. coli strain TG1. The bacterial lysate was added to the wells of the human TFPI-coated Maxisorp plates. After washing, HRP-conjugated goat anti-human Fab was used as a detection antibody and the plates were developed by adding AmplexRed (Invitrogen) with hydrogen peroxide. A signal of at least five-fold higher than the background was considered as positive. The cross reactivity of the anti-human TFPI antibodies to mouse TFPI was determined by a similar mouse TFPI-binding ELISA. The plates were coated with mouse TFPI (R&D System), BSA and lysozyme. The later two antigens were used as negative controls.
In general terms: ELISA stands for enzyme-linked immunosorbent assay.

The target of experiment [1] is T2, human tissue factor pathway inhibitor (TFPI) (human, UniProt P10646 29-304, limits assumed).
T2 construct: Bought protein; also called human TFPI; hTFPI
T2 sequence (looked up): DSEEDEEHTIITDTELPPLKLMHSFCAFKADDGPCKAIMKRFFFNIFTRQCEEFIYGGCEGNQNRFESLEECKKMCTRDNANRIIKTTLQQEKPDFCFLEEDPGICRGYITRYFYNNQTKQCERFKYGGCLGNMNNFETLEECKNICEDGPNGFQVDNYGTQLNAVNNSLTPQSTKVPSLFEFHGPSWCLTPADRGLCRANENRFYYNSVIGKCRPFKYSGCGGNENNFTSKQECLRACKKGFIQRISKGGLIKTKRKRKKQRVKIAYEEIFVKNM
As to the kind of experiment: ELISA, Fab lysate on coated human TFPI. Here is the method: as §1

T1 sequence (P02769 25-607 limits assumed): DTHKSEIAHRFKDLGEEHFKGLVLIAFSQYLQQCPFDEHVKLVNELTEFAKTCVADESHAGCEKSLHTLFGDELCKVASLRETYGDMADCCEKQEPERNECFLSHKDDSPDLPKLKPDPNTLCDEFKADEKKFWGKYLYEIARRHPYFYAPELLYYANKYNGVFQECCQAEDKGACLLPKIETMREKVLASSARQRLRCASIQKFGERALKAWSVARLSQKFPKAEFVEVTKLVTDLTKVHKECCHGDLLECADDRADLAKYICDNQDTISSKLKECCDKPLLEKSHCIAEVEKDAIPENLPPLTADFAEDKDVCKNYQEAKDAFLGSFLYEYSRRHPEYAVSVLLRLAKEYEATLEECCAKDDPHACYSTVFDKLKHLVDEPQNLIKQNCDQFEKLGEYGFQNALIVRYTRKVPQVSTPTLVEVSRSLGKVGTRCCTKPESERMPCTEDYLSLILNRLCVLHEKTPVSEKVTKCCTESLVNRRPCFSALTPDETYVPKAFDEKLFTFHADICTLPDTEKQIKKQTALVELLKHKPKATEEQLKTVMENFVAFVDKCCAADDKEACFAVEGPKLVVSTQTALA

B1: TP-3A3 Fab (Fab, V domains shown)
VH: QVQLVESGGGLVQPGGSLRLSCAASGFTFNNNAISWVRQAPGKGLEWVSAINSSSSSTSYADSVKGRFTISRDNSKNTLYLQMNSLRAEDTAVYYCARGHHRGHSWASFIDYWGQGTLVTVSS
VL: DIELTQPPSVSVAPGQTARISCSGDNIGSKYVHWYQQKPGQAPVVVIYEDSDRPSGIPERFSGSNSGNTATLTISGTQAEDEADYYCQSWDKSEGYVFGGGTKLTVLG
notes: Human Fab from HuCal Gold, expressed in E. coli TG1
B1: the binding result is listed as “no binding” in the experiment with BSA and “binds” in experiment [1].

B2: TP-3F2 Fab (Fab, V domains shown)
VH: QVQLVESGGGLVQPGGSLRLSCAASGFTFSSYSMHWVRQAPGKGLEWVSGISYSSSFTYYADSVKGRFTISRDNSKNTLYLQMNSLRAEDTAVYYCARALGGGVDYWGQGTLVTVSS
VL: DIELTQPPSVSVAPGQTARISCSGDNLPSKSVYWYQQKPGQAPVLVIYGDNNRPSGIPERFSGSNSGNTATLTISGTQAEDEADYYCQSWTSRPMVVFGGGTKLTVLG
notes: as for B1
For the molecule B2, the binding result in the experiment with BSA was “no binding”; in experiment [1], “binds”.

B3: TP-3D3 Fab (Fab, V domains shown)
VH: QVQLVESGGGLVQPGGSLRLSCAASGFTFSSYASWVRQAPGKGLEWVSGISGDGSNTHYADSVKGRFTISRDNSKNTLYLQMNSLRAEDTAVYYCARYDNFYFDVWGQGTLVTVSS
VL: DIELTQPPSVSVAPGQTARISCSGDSLGSKFAHWYQQKPGQAPVLVIYDDSNRPSGIPERFSGSNSGNTATLTISGTQAEDEADYYCSTYTSRSHSYVFGGGTKLTVLG
notes: as for B1
On to B3, for which the binding result with BSA is “no binding”; in experiment [1], “binds”.

B4: TP-2D7 Fab (Fab, V domains shown)
VH: QVQLQQSGPGLVKPSQTLSLTCAISGDSVSSNSAAWGWIRQSPGRGLEWLGLIYYRSKWYNDYAVSVKSRITINPDTSKNQFSLQLNSVTPEDTAVYYCARFGDTNRNGTDVWGQGTLVTVSS
VL: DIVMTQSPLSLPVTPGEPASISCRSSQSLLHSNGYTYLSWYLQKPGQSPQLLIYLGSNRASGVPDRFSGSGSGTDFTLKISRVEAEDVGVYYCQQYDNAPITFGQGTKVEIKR
notes: as for B1
As to B4, the binding result in the experiment with BSA is “no binding”; in experiment [1] it was “binds”.

B5: TP-3C3 Fab (Fab, V domains shown)
VH: B4 VH with L52V, F102A, G103R, D104A, T105K, N106K, R107S, N108G, T110F, V112Y
VL: DIQMTQSPSSLSASVGDRVTITCRASQSINPYLNWYQQKPGKAPKLLIYAASNLQSGVPSRFSGSGSGTDFTLTISSLQPEDFAVYYCQQLDNRSITFGQGTKVEIKR
notes: as for B1
Regarding B5, the binding result is recorded as “no binding” with BSA and “binds” in experiment [1].

B6: TP-3E1 Fab (Fab, V domains shown)
VH: QVQLVESGGGLVQPGGSLRLSCAASGFTFSNYAMTWVRQAPGKGLEWVSVISSVGSNTYYADSVKGRFTISRDNSKNTLYLQMNSLRAEDTAVYYCARPTKAGRTWWWGPYMDVWGQGTLVTVSS
VL: DIELTQPPSVSVAPGQTARISCSGDNIGSYYAYWYQQKPGQAPVLVIYDDSNRPSGIPERFSGSNSGNTATLTISGTQAEDEADYYCQSYDSTGLLVFGGGTKLTVLG
notes: as for B1
With B6, the binding result with BSA was “no binding”; in experiment [1], “binds”.

B7: TP-4A7 Fab (Fab, V domains shown)
VH: QVQLVESGGGLVQPGGSLRLSCAASGFTFRNYAMNWVRQAPGKGLEWVSVISGSSSYTYYADSVKGRFTISRDNSKNTLYLQMNSLRAEDTAVYYCARADLPYMVFDYWGQGTLVTVSS
VL: B6 VL with N26A, I27L, Y30K, Y31F, Y33H, N52E, S89A, T93G, G94L, L96Y
notes: as for B1
With B7, the binding result with BSA is reported as “no binding”; in experiment [1], “binds”.

B8: TP-2F9 Fab (Fab, V domains shown)
VH: QVQLVESGGGLVQPGGSLRLSCAASGFTFYKYAMHWVRQAPGKGLEWVSGIQYDGSYTYYADSVKGRFTISRDNSKNTLYLQMNSLRAEDTAVYYCARYYCKCVDLWGQGTLVTVSS
VL: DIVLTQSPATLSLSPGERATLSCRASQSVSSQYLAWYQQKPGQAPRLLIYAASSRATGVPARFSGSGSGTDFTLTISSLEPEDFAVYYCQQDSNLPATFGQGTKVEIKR
notes: as for B1
B8: the binding result in the experiment with BSA was “no binding”; in experiment [1], “binds”.

B9: TP-3H2 Fab (Fab, V domains shown)
VH: QVQLVESGGGLVQPGGSLRLSCAASGFTFNSYYMSWVRQAPGKGLEWVSNISSSGSNTNYADSVKGRFTISRDNSKNTLYLQMNSLRAEDTAVYYCARVHYGFDFWGQGTLVTVSS
VL: DIELTQPPSVSVAPGQTARISCSGDKLGKYYAYWYQQKPGQAPVLVIYGDSKRPSGIPERFSGSNSGNTATLTISGTQAEDEADYYCSSAAFGSTVFGGGTKLTVLG
notes: as for B1
With B9, the binding result is “no binding” with BSA and “binds” in experiment [1].

B10: TP-2G4 Fab (Fab, V domains shown)
VH: QVQLVESGGGLVQPGGSLRLSCAASGFTFSSYAMTWVRQAPGKGLEWVSNISYSGSNTYYADSVKGRFTISRDNSKNTLYLQMNSLRAEDTAVYYCARVGYYYGFDYWGQGTLVTVSS
VL: DIELTQPPSVSVAPGQTARISCSGDALRKHYVYWYQQKPGQAPVLVIYGDNNRPSGIPERFSGSNSGNTATLTISGTQAEDEADYYCQSYDKPYPILVFGGGTKLTVLG
notes: as for B1
With B10, the binding result with BSA is “no binding”; in experiment [1] it was “binds”.

B11: TP-3B3 Fab (Fab, V domains shown)
VH: B10 VH with A33G, T35H, S54M, Y59N, V99G, G100L, Y101F, Y102P, Y103G, G104Y
VL: DIELTQPASVSVAPGQTARISCSGDNLRSKYAHWYQQKPGQAPVLVIYGDNNRPSGIPERFSGSNSGNTATLTISGTQAEDEADYYCSAYAMGSSPVFGGGTKLTVLG
notes: as for B1
Turning to B11, the binding result with BSA is on record as “no binding”; in experiment [1] it was “binds”.

B12: TP-2B9 Fab (Fab, V domains shown)
VH: QVQLQQSGPGLVKPSQTLSLTCAISGDSVSSNSAAWGWIRQSPGRGLEWLGMIYHRSKWYNDYAVSVKSRITINPDTSKNQFSLQLNSVTPEDTAVYYCARYSSIGHMDYWGQGTLVTVSS
VL: DIQMTQSPSSLSASVGDRVTITCRASQSIRSYLAWYQQKPGKAPKLLIYKASNLQSGVPSRFSGSGSGTDFTLTISSLQPEDFAVYYCHQYSDSPVTFGQGTKVEIKR
notes: as for B1
As to B12, the binding result with BSA is reported as “no binding”; in experiment [1] it was “binds”.

B13: TP-2E3 Fab (Fab, V domains shown)
VH: B12 VH with H55Y, Y102V, S103N, S104Q, I105Y, G106T, H107S, M108S
VL: DIALTQPASVSGSPGQSITISCTGTSSDIGGYNYVSWYQQHPGKAPKLMIYGVNYRPSGVSNRFSGSKSGNTASLTISGLQAEDEADYYCSSADKFTMSIVFGGGTKLTVLG
notes: as for B1
For the molecule B13, the binding result was “no binding” with BSA and “binds” in experiment [1].

B14: TP-3A2 Fab (Fab, V domains shown)
VH: QVQLVESGGGLVQPGGSLRLSCAASGFTFSNYYLSWVRQAPGKGLEWVSGISYNGSSTNYADSVKGRFTISRDNSKNTLYLQMNSLRAEDTAVYYCARMWRYSLGADSWGQGTLVTVSS
VL: DIELTQPPSVSVAPGQTARISCSGDNIGSRYAYWYQQKPGQAPVVVIYDDSDRPSGIPERFSGSNSGNTATLTISGTQAEDEADYYCAAYTFYARTVFGGGTKLTVLG
notes: as for B1
Take B14: the binding result with BSA is “no binding”; in experiment [1] it was “binds”.

B15: TP-2G2 Fab (Fab, V domains shown)
VH: QVQLVESGGGLVQPGGSLRLSCAASGFTFSSYAMNWVRQAPGKGLEWVSAILSDGSSTSYADSVKGRFTISRDNSKNTLYLQMNSLRAEDTAVYYCARYPDWGWYTDVWGQGTLVTVSS
VL: DIELTQPPSVSVAPGQTARISCSGDNIRKFYVHWYQQKPGQAPVLVIYGTNKRPSGIPERFSGSNSGNTATLTISGTQAEDEADYYCQSYDSKFNTVFGGGTKLTVLG
notes: as for B1
As to B15, the binding result in the experiment with BSA is “no binding”; in experiment [1] it was “binds”.
